Experimental findings from US20230265192A1 (GIGAGEN, published 2023) are described below.

Assay [1] deals with T1, His-tagged cynomolgus CTLA-4 (CT4-C5227; Acro Biosystems) (cynomolgus, UniProt G7PL88 36-161).
T1 construct: also called soluble cynomolgus CTLA-4; cyno CTLA-4
Kind of assay: BLI (Octet). The gist of the method: (§1)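 Antibodies captured on anti-human IgG Fc (AHC) biosensors (Octet Red96); antigen analyte from 300 nM in 6 serial 1:3 dilutions. Kinetics from global fitting to a 1:1 binding model.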
Background: BLI is a label-free optical method that tracks binding on a fibre tip over time.

A further assay deals with mouse CTLA-4 (mouse, UniProt P09793 36-161, limits assumed). Kind of assay: BLI (Octet). An outline of the steps:
as §1

The target in assay [2] is T2, His-tagged human CTLA-4 (CT4-H5229; Acro Biosystems) (human, UniProt P16410 36-161).
T2 construct: bought soluble protein; also called soluble human CTLA-4; recombinant human CTLA-4; not shown: His tag
T2 sequence (P16410 36-161 limits assumed): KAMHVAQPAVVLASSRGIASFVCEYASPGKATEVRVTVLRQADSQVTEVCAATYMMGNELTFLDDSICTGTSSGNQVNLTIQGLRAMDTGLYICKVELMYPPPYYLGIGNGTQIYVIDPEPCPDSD
Kind of assay: SPR (Carterra). The gist of the method: (§2)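 mAb supernatants captured, at two densities, on an anti-human IgG Fc lawn. His-tagged human CTLA-4 injected at 1.95, 7.8, 31.25, 125 and 500 nM in HBS-EPC pH 7.4 with 1.0 mg/mL BSA, as a non-regenerative series with 5-min association and 15-min dissociation. Double-referenced data fitted for ka, kd and KD.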

In assay [3] the target is T2, His-tagged human CTLA-4 (CT4-H5229; …). Kind of assay: SPR (Carterra). The gist of the method: as §2
The source holds these as a separate data set.

In assay [4] the target is T3, human CTLA-4 expressed on the cell surface (human, UniProt P16410 36-223). The experiment in a line: cell-based or functional assay.
T3 sequence (P16410 36-223 limits assumed): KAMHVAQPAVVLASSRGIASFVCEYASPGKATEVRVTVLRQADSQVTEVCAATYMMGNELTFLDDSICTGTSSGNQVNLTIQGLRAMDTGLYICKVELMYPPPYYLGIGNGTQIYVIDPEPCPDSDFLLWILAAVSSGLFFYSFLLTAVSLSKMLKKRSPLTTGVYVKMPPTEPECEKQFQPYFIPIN
The target of assay [5] is T3, human CTLA-4 expressed on the cell …. The experiment in a line: cell-based or functional assay. The source holds these as a separate data set.
For assay [6], the target named is T2, His-tagged human CTLA-4 (CT4-H5229; …). The experiment in a line: SPR (Carterra), soluble human CTLA-4.
Assay [7] deals with T1, His-tagged cynomolgus CTLA-4 …. The experiment in a line: BLI (Octet), single antigen concentration. On the procedure: Table 23. In vitro characterization of scFvs reformatted as full-length antibodies. kon, koff, and KD of the indicated CTLA-4 mAbs for soluble human CTLA-4 was determined by SPR (Carterra). Geometric MFI of the indicated CTLA-4 mAbs bound to CTLA-4⁺ or CD27⁺ CHO cells as detected by a secondary human IgG antibody and flow cytometry. Affinity (KD) of the indicated CTLA-4 mAbs for soluble cynomolgus CTLA-4 was determined by a single antigen concentration BLI measurement (Octet). […] Due to constraints on sample size in each Promega bioassay kit, this set of aCTLA-4 mAbs was analyzed using multiple plates (plate letters correspond to Plate A-D in FIG. 20D).
Antibodies were loaded at 5 μg/mL onto Protein A biosensors that were dipped into 80 nM antigen, and kinetic constants were calculated using a monovalent model.

The target in assay [8] is T3, human CTLA-4 expressed on the cell …. The experiment in a line: flow cytometry, 10 µg/mL mAb, geometric MFI.
Assay [9] has as its target T4, CD27 on CHO cells (UniProt P26842 20-260, limits assumed).
T4 construct: whole, on cells; also called CD27+ CHO cells; irrelevant antigen (CD27)
The experiment in a line: flow cytometry, 10 µg/mL mAb, geometric MFI. For orientation: Flow cytometry measures light scatter and fluorescence of single cells or particles in a stream.

Assay [10] concerns the target T4, CD27 on CHO cells. Kind of assay: flow cytometry, mixed CTLA-4+ and CD27+ CHO cells. An outline of the steps:
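CHO cells stably expressing human CTLA-4 mixed with CD27-expressing CHO cells, then incubated with 10 μg/mL mAb for 30 min at 4 °C. Bound mAb detected with PE anti-human IgG Fc, CD27 cells gated by FITC anti-CD27; cells fixed in 4% paraformaldehyde before flow cytometry.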

The target in assay [11] is T5, rcmCTLA-4-Fc from Sino Biological (90213-C02H) (cynomolgus monkey).
T5 construct: also called Sino Biological rcmCTLA-4 Fc
The experiment in a line: ELISA, against R&D rhCTLA-4 Fc on the same plate. The method, then: (§3) Recombinant human CTLA-4-Fc (rhCTLA-4) from R&D Systems (7268-CT-100, FIGS. 36A-36C) was coated at 1 ug/mL, on the other half of each of the plates. […] RhCTLA-4-Fc (ACROBiosystems, CT4-H5229, FIGS. 36D-E) was coated at 1 ug/mL, on the other half of each of these plates. After coating, the plates were incubated overnight at 4° C.
(§4) The following day, the plates were blocked with 5% milk in PBST for 1 hour on a plate shaker at room temperature. […] Excess, unbound mAbs were removed by washing with PBST. Bound mAbs were then detected with an HRP-conjugated anti-kappa light chain antibody (0.5 ug/ml, Southern Biotech 2060-50). After incubation on a plate shaker for 1 hour at room temperature and washing, the plates were developed with TMB substrate. After sufficient signal was achieved, 1 N hydrochloric acid was added to stop development. Absorbance at 450 nm was read using a Spectramax i3x plate reader (Molecular Devices). EC50 values were calculated by plotting absorbance vs. the log of concentration using Prism (GraphPad).
(An ELISA detects its analyte on a solid surface through an enzyme-linked reagent.)

The target in assay [12] is T6, rcmCTLA-4-Fc from ACROBiosystems (CT4-C5256) (cynomolgus monkey).
T6 construct: also called ACROBiosystems rcmCTLA-4 Fc; ACROBiosystems cCTLA-4 Fc
The experiment in a line: ELISA, against R&D rhCTLA-4 Fc on the same plate. On the procedure: as §3, §4

For orientation: Kd means the free concentration of one partner at which half of the binding sites on the other are occupied at equilibrium, for simple one-to-one binding. Read a high Kd as a looser complex. For orientation: koff means the rate constant with which the complex falls apart. The low end stands for slow dissociation, the high end for fast dissociation. What is called kon is the rate constant with which the complex forms. A higher kon goes with faster complex formation.

T4 sequence (P26842 20-260 limits assumed): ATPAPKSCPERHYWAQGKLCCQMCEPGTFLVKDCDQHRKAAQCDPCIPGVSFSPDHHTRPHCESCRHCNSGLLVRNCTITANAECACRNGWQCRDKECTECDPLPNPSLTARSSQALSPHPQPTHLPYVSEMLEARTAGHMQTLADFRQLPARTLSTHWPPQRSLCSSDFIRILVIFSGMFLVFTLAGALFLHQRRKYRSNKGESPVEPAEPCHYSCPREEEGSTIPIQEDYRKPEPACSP
T1 sequence (G7PL88 entry or part of it limits assumed, form in doubt): as the sequence (P16410 36-161 limits assumed) above, with S14N, I18T, L106M counted along it
mouse CTLA-4, sequence (P09793 36-161 limits assumed): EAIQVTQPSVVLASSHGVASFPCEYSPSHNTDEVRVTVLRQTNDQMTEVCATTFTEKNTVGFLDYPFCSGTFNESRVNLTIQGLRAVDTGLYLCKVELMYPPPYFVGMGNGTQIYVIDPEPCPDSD

B1: antibody A1 (L1H1) (antibody, V domains shown)
VH: QVQLVESGGGVVQPGRSLRLSCAASGFTFSSFGMHWVRQAPGKGLEWVAVIWYDGRNKYYVDSVKGRFTISRDNSNNTLYLQMNSLRAEDTAVYYCARGEFFGEFFDYWGQGTLVTVSS
VL: EIVLTQSPGTLSLSPGEGATLSCRASQSFSSNYLAWYQQKPGQAPRLLIYGASSRATGIPDRFSGSGSGTDFTLTISRLEPEDFAVYYCQQYGTSPFTFGPGTKVDIK
notes: also called aCTLA-4.9; CTLA4.A1
On to B1, for which the Kd was determined as 960 pM in assay [1]; 51000 pM with mouse CTLA-4; 770 pM in assay [2]; 770 pM in assay [3]; 770 pM in assay [6]; 1000 pM in [7]. Moreover, the off-rate constant (koff) in assay [3] and in assay [6] was 0.00016 s⁻¹ throughout. For the same molecule, the kon in assay [3] and in [6] was 210000 M⁻¹ s⁻¹ each time. Besides, in assay [4], the “Promega assay % inhibition” value is 43.2%. Besides, in [4], the “Promega assay antagonist (EC50, ug/mL)” value came to 0.13 µg/mL. The “Cell-based blocking activity EC50” value in assay [5] stood at 0.13 µg/mL. Besides, the “Cell-based blocking activity max signal (RLU)” value in [5] worked out at 237 RLU. Further, the “MFI of CTLA-4+ CHO cells” value in [8] was determined as 1330. In addition, the “MFI of CD27+ CHO cells” value in the assay with CD27 on CHO cells [9] was 18.5. Besides, in the assay with CD27 on CHO cells [10], the binding result is “no binding (tested: 10 µg/mL)”.

B2: Ipilimumab (antibody, V domains shown)
VH: QVQLVESGGGVVQPGRSLRLSCAASGFTFSSYTMHWVRQAPGKGLEWVTFISYDGNNKYYADSVKGRFTISRDNSKNTLYLQMNSLRAEDTAIYYCARTGWLGPFDYWGQGTLVTVSSA
VL: not shown
notes: also called commercial ipilimumab; Yervoy
In the case of B2, the “Fold Change (EC50 of cyno divided by EC50 of human)” value in [11] is 1.6; in assay [12], 1.3.
